T1: human AXL expressed on the cell surface of tumor cell lines (human, UniProt P30530 26-894)
T1 construct: whole, on cells; also called cell surface-expressed AXL; cell-based AXL
T1 sequence (looked up): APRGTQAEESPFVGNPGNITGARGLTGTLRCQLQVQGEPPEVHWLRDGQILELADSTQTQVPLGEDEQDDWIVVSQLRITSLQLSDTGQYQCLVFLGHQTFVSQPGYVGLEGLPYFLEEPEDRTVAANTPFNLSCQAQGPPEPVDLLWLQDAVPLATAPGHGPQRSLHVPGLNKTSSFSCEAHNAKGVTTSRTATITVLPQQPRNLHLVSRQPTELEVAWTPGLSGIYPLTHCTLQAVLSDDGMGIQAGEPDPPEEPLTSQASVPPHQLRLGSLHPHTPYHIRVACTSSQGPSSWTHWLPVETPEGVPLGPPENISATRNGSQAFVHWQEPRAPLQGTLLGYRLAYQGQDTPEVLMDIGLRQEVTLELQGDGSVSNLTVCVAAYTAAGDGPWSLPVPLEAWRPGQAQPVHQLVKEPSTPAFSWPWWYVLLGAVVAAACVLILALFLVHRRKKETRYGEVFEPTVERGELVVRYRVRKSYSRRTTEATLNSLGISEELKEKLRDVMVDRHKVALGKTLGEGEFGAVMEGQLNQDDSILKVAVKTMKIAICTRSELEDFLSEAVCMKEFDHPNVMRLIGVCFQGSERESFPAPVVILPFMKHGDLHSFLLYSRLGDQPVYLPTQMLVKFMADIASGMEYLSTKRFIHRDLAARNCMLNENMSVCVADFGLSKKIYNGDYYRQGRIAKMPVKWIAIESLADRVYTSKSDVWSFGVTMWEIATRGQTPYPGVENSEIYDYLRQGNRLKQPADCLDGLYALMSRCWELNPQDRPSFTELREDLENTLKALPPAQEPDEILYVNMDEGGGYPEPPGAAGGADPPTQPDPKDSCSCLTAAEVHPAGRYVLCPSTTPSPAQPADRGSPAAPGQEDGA

T2: recombinant human AXL extracellular domain, C-terminally His8-tagged (rhAXL-ECD) (human, UniProt P30530 26-451)
T2 construct: Made in CHO cells; also called (rh)AXL-ECD His8; human AXL ECD
T2 sequence: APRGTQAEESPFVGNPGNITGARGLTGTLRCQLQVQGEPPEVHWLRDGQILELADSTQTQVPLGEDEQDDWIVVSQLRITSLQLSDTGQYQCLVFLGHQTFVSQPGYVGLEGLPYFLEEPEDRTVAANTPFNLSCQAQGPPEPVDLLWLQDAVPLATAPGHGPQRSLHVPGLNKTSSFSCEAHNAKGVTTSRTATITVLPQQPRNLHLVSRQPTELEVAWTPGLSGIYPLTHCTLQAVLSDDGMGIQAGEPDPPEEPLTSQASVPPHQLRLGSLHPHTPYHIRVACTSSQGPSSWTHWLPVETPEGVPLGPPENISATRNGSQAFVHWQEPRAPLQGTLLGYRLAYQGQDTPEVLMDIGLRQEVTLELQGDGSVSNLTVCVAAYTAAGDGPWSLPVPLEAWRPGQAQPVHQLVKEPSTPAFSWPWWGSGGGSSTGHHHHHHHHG

T3: mouse AXL extracellular domain (Sino cat. 51026-M08H) (mouse, UniProt Q00993 19-445)
T3 construct: extracellular domain; Bought protein; also called mouse AXL ECD
T3 sequence (looked up): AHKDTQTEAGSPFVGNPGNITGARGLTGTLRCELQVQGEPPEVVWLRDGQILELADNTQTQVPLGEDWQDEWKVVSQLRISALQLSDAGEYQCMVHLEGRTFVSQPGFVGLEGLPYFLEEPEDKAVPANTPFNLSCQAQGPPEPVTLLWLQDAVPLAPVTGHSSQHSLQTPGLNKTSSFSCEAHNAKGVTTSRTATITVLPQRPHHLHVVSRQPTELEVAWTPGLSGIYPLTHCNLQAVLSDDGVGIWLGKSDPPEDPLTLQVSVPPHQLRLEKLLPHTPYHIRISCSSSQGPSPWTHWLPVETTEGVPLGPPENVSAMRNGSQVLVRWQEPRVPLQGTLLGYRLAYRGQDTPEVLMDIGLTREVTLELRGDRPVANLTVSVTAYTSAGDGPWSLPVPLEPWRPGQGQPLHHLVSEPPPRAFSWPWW


Tests used:
[1] = target: T1, human AXL expressed on the cell surface …; experiment: FACS on MDA-MB-231 luciferase cells, apparent Kd
Method: (§1) FACS binding assay. Adherent cells were dissociated with non-enzymatic Sigma Cell Dissociation Solution (Cat. No. C5789). Cells suspensions were added to polypropylene, V-bottom 96-well plates and incubated for 2 hours on ice with primary antibodies at concentrations ranging from 100 nM to 0.001 nM or at a single dose of 100 nM (for the non-specific control). After incubation and washes, cells were incubated with fluorescently labeled secondary antibody (Alexa Fluor® 488 anti-human IgG from Jackson Cat. No 709-546-098) for 1 hour on ice, then washed. Cell viability was determined using Fixable viability dye 450 (20 min on ice). Stained cells were fixed in 1% formaldehyde at 4° C. and stored at 4° C. until acquisition which was performed the next day.
(§2) Binding of recombinant chimeric Abs to three cell lines was assessed by FACS as described above. The apparent Bmax and Kd determination is shown below in Table 14.

[2] = target: T2, recombinant human AXL extracellular …; experiment: ELISA on coated AXL ECD (100 ng/well), HRP-protein A
Method: (§3) ELISA. ELISAs against human, cyno and mouse AXL ECDs were conducted by immobilizing 100 ng of each protein in wells of Nunc MaxiSorp microplates overnight. Human AXL (aa 1-451) and cyno AXL (aa 1-449) were produced recombinantly as described in Example 10. Mouse AXL was purchased from Sino (cat. 51026-M08H). The next day, plates were blocked with 5% (w/v) dried milk in PBS. Murine mAbs (either hybridoma- or recombinantly-produced) or VHH-Fcs were diluted in PBS containing 1% BSA and 0.1% Tween-20 and added to wells for 2 hours at room temperature. Wells were washed 5× with PBS containing 0.1% Tween-20, then HRP-labeled protein A (diluted 1:1000 in PBS containing 1% BSA and 0.1% Tween™-20) was added to wells for 1 hour at room temperature. Wells were washed again 5× with PBS/0.1% Tween-20 and developed using TMB substrate. Absorbance was measured at 450 nm. As a positive control for mouse AXL binding, a commercial anti-mouse AXL mAb (clone 175128, R&D Systems MAB8541, rat IgG2A) was used and detected with donkey […] secondary antibody.

[3] = target: T3, mouse AXL extracellular domain (Sino …); experiment: ELISA on coated mouse AXL ECD (100 ng/well)
Method: as §3

[4] = target: T4, recombinant cynomolgus AXL extracellular domain (cynomolgus); experiment: SPR Biacore T200, mAb captured on anti-Fc, AXL ECD flowed, single-cycle kinetics
T4 construct: range 1-449; also called Cyno AXL; cyno AXL ECD
Method: (§4) Surface plasmon resonance. For murine mAbs, binding to human and cynomolgus AXL ECD was assessed using a Biacore T200 instrument. Briefly, either anti-mouse or anti-human Fc antibody was immobilized on a research-grade CM5 series S sensor chip using amine coupling in acetate buffer. Murine or recombinant chimeric murine-human mAbs (mouse VH/VL; human constant regions) were captured, then recombinant human or cyno AXL ECD was flowed over the surface at different concentration ranges (0.1-500 nM) depending on the antibody. The running buffer was PBS/Tween-20 and the flow rate 100 uL/min. All binding studies were performed at 25° C. Surfaces were regenerated using 10 mM glycine, pH 1.5.

[5] = target: T2, recombinant human AXL extracellular …; experiment: as above
Method: as §4

[6] = target: T4, recombinant cynomolgus AXL …; experiment: SPR Biacore T200, mAb captured on anti-Fc, AXL ECD flowed, steady-state analysis
Method: as §4

[7] = target: T1, human AXL expressed on the cell surface …; experiment: FACS on SKOV3 cells, apparent Kd
Method: as §1, §2

[8] = target: T2, recombinant human AXL extracellular …; experiment: SPR Biacore T200, mAb captured on anti-Fc, AXL ECD flowed (no footnote in the cell)
Method: as §4

[9] = target: T1, human AXL expressed on the cell surface …; experiment: FACS on NCI-H292 cells, apparent Kd
Method: as §1, §2

[10] = target: T2, recombinant human AXL extracellular …; experiment: SPR, steady-state analysis (format not stated)
Method: For VH Hs and VHH-Fcs, binding to human and cynomolgus AXL ECD was assessed using either a Biacore T200 instrument or a Biacore 3000 instrument. Either human AXL ECD or anti-human Fc antibody was immobilized on a research-grade CM5 series S sensor chip (T200, rhAXL ECD) or a C1 sensor chip (3000, anti-human Fc) using amine coupling in acetate buffer. VHH-Fcs were captured on anti-human Fc surfaces. Either monomeric VHHs (for rhAXL ECD surfaces) or human and cyno AXL ECD (for VHH-Fc surfaces) were flowed over the surfaces at different concentration ranges. Running buffers were HBS-EP (3000) and HBS-EP+(T200). Flow rates were 10-40 ul/min. All binding studies were performed at 25° C. Surfaces were regenerated using 10 mM glycine, pH 1.5.

Binder	Kd [1] [nM]	EC50 [2] [nM]	binding result [3]	Kd [4] [nM]	koff [4] [s⁻¹]	kon [4] [M⁻¹ s⁻¹]	Kd [5] [nM]	koff [5] [s⁻¹]	kon [5] [M⁻¹ s⁻¹]	Kd [6] [nM]	Kd [7] [nM]	koff [8] [s⁻¹]	kon [8] [M⁻¹ s⁻¹]	Kd [9] [nM]	Kd [10] [nM]
hFC-F107-8D12 (antibody, human IgG1, kappa, V domains shown, Chimeric mAb, human IgG1 / human kappa constant regions; also called mAb F107-8D12; chimeric F107-8D12) VH: QVQLQQPGAELVKPGASVQLSCKASGYTFISFWINWVKQRPGQGLEWMGNIFPGSSSTNYNEKFKSKATLTVDKSSSTAYMQLSSLTSEDSAVYFCARDYYGGSPDYWGQGTTLTVSS VL: DIVMSQSPSSLAVSAGERVTMSCKSSQSLLNTRTRKNYLAWYQQKPGQSPKLLIYWASTRESGVPDRFTGSGSGTDFTLTISSVQAEDLAVYYCKQSYNLWTFGGGTKLEIKR	–	1	no binding	–	–	–	5	0.013	2.7e+06	1840	–	–	–	–	–
hFC-F107-7H5 (antibody, human IgG1, kappa, V domains shown, Chimeric mAb, mouse VH/VL on human IgG1 heavy and human kappa light constant regions, made in CHO cells; also called mAb F107-7H5; hIgG-F107-7H5) VH: QVQLQQPGAELVKPGASVKLSCKASGYTFTSYWINWVKQRPGQGLEWIGNIYPDSSSTNYNEKFKSKATLTVDKSSTTAYIQFSSLTSEDSAVYYCTRDTYGGSPDYWGQGTTLTVSS VL: DIVMSQSPSSLAVSAGEKVTMSCKSSQSLLNSRTRKIYLAWYQQKPGQSPKLLIYWASTRQSGVPDRFTGSGSGTDFTLTISSVQAEDLAVYYCKQSYNLWTFGGGTKLEIKR	0.17	6	no binding	–	–	–	1	–	–	925	0.07	0.0015	1.4e+06	0.0509	–

The next lines start with the values.

Kd [1] [nM]	EC50 [2] [nM]	binding result [3]	Kd [4] [nM]	koff [4] [s⁻¹]	kon [4] [M⁻¹ s⁻¹]	Kd [5] [nM]	koff [5] [s⁻¹]	kon [5] [M⁻¹ s⁻¹]	Kd [6] [nM]	Kd [7] [nM]	koff [8] [s⁻¹]	kon [8] [M⁻¹ s⁻¹]	Kd [9] [nM]	Kd [10] [nM]	Binder
0.366	2	no binding	4	0.0027	690000	2	0.0018	780000	–	–	–	–	–	–	hFC-F111-5E9 (antibody, human IgG1, kappa, V domains shown, Chimeric mAb, human IgG1 / human kappa constant regions; also called mAb F111-5E9; hIgG-F111-5E9) VH: QIQLVQSGPELKKPGETVKISCKASGYTFTKYGMNWVKQAPGKGLKWMGWINTYTGEPTYADDFKGRFAFSLETSASTAYLQINNLTTEDMVTYFCAKGGYYSNPIYPMDYWGQGTSVTVSS VL: DIQMTQTTSSLSASLGDRVTISCRASQDINNYLNWYQQKPDGTVKLLIYYISRLHSGVPSRFSGSGSGTDYSLTISNLELEDVATYFCQQGNTLPFTFGSGTKLEIKR
–	–	–	–	–	–	–	–	–	–	–	–	–	–	96	NRC-sdAb002 (VHH monomer) (VHH, Llama VHH monomer; not shown: 6xHis and Myc tags) VHH: QVQLVDSGGGLVQAGGSLRLSCATSTRTVSSAVMAWFRQAPEKVRDFVGFITNSGNILYDDSVKGRFTISRDNAQNTVYLQMNSLKPEDTAVYYCAAKWSFSSGYGDLRRAAMYDYWGQGTQVTVSS

Source: patent US20240076389A1 (NATIONAL RESEARCH COUNCIL OF CANADA, published 2024)
